Test results as given in patent US20110280881A1, “NOVEL ANTI-HSP90 MONOCLONAL ANTIBODY” (RIKEN, priority 2010, published 2011).

Experiments:
HSP90 = experiment: Western blot of DC2.4 dendritic cell line extract with anti-HSP90 antibodies; assay type: binding; settings: SDS-PAGE
Method: A BALE/c mouse was twice immunized with 50 μg of human recombinant HSP90α (prepared using an Escherichia coli expression vector supplied by Professor Takayuki Nemoto at the Nagasaki University School of Dentistry; see J. Biol. Chem. 272:26179-26187, 1997). The adjuvant used was 50 μl of TiterMax Gold (TiterMax, Ga., USA). Three days after final immunization, splenocytes were taken out from the immunized mouse and fused with P3U1 myeloma cells in a 1:1 ratio by means of polyethylene glycol 4000. The fused cells were seeded to a 96-well plate at 5000 cells/well and cultured in an HAT selection culture broth (an RPMI containing 10% FCS, supplemented with 0.1 mM hypoxanthine, 0.016 mM thymidine, and […] aminopterin) for 10 days. The antibodies against HSP90a present in the supernatants in wells containing proliferated cells were detected by ELISA. The hybridomas secreting the antibodies against HSP90α were re-seeded at 0.2 cells/well and further cultured using an HT selection culture broth (an RPMI containing 10% FCS, supplemented with 0.1 mM hypoxanthine and 0.016 mM thymidine) for 10 days. For the antibodies in the supernatants of proliferated cells, it was confirmed using ELISA and Western blotting that antibodies against HSP90 were secreted. […]

OT-I CD8+ T cells [1] = experiment: In vivo cross-presentation assay with free 6H8 antibody administered concurrently; parameters: species or system mouse; settings: 72 hours
Method: (1) CFSE-labeled CD8^+ T cells of an OT-I/CD45.1 mouse were transferred to recipient mice from the tail vein, with 6H8-OVA [or 6H8 (F(ab′)2)—OVA, or OVA, or IgG2a-OVA] (0.3 μg) and the free 6H8 antibody [or 6H8 (F(ab′)2) or IgG2a] (30 μg) administered from the tail vein concurrently. (2) 72 hours later, the spleen was recovered from each mouse, and 2×10^6 splenocytes were stained with the PE-CD45.1 antibody in a 96-well round-bottomed plate for 30 minutes (while cooling on ice). (3) The CFSE intensity of CD45.1-positive cells (OT-I CD8^+ T cells) was determined using FACS Canto (BD).

[2] = system: GM-CSF-dependent bone marrow-derived dendritic cells; experiment: Cytokine production from bone marrow-derived dendritic cells on immobilized 6H8 antibody; assay type: cell-based; settings: antibody immobilized on 96-well plate, 12 hours
Method: (1) […] of the 6H8 antibody diluted in PBS (10 mg/ml) was added to a 96-well flat plate (Corning Incorporated, product number 3596), and the plate was treated at 4° C. overnight. (2) The plate was washed twice with […] of PBS to remove the excess 6H8 antibody. (3) On day 5 after induction, GM-CSF-dependent bone marrow-derived dendritic cells were added to the plate from (2) at 1×10^5/well and cultured in an incubator at 37° C. with 5% CO2. (4) 12 hours after the start of cultivation, the supernatant was recovered; the amounts of cytokines and chemokines in the supernatant were determined according to a standard protocol using the Bio-Plex suspension array system with 23-Plex Panel (Bio-rad, 171-F11241).

[3] = system: MO5 (OVA-expressing melanoma); experiment: Pulmonary metastasis model with MO5 (OVA-expressing melanoma); assay type: in vivo, mouse; settings: MO5 i.v.; 4 days later 6H8-OVA (10 mg) i.v.; counted 15 days later
Method: The pulmonary metastasis suppressing effect of 6H8-OVA was examined in a pulmonary metastasis model that is generated by transvenously administering MO5 (OVA-expressing melanoma) to a mouse. MO5 was administered to the mouse from a vein; 4 days later, PBS or 6H8-OVA (10 mg) was administered from a vein. 15 days later, pulmonary metastatic spots were counted.

OT-I CD8+ T cells [4] = experiment: In vitro cross-presentation assay with BMDC of normal and FcRγ KO mouse; assay type: cell-based; settings: BMDC pulsed 3 hours, co-culture with OT-I CD8+ T cells, IFNγ ELISA
Method: (1) A bone marrow-derived dendritic cells (BMDCs) were established from a normal mouse and an FcRγ KO mouse (supplied by Professor Akira Shibuya, Immunology, Life System Medical Sciences, Majors of Medical Sciences, Graduate School of Comprehensive Human Sciences, University of Tsukuba) as described below. Bone marrow was recovered from a mouse femur and tibia, and 1×10^6 cells each were cultured in a 24-well plate using 2 ml/well of a complete RPMI containing 20 ng/ml recombinant mouse GM-CSF (R&D). Half of the medium was exchanged for a fresh medium on day 3 of cultivation, and the cells obtained on day 5 of cultivation were used as the BMDC. (2) BMDCs at Day 5 induced in a GM-CSF-dependent manner was stained with biotin-6H8 (2.5 μg/ml) and streptavidin-APC (0.2 μg/ml), and its fluorescence was determined using FACS Canto (BD).
(1) A pellet of 1×10^6 BMDC cells at Day 5 induced in a GM-CSF-dependent manner were prepared in a 15-ml tube. After adding 400 μl of an antigen (6H8-OVA, OVA, or OVA257-264) thereto, the tube was incubated with 5% CO2 at 37° C. for 3 hours. The cells were fixed in 0.5% para-formaldehyde, after which the cells were washed with 0.1 M glycine and then with RPMI; thereafter, the density was adjusted to 1×10^5 cells/ml. (2) Concurrently, OT-I CD8^+ T cells were purified and the density was adjusted to 1×10^5 cells/ml. […]

OT-I CD8+ T cells [5] = experiment: In vivo differentiation of transferred OT-I CD8+ T cells into memory T cells (CD44); parameters: species or system mouse; settings: 3 μg tail vein, 96 hours, compared with group that did not receive 6H8-OVA
Method: (1) 2×10^6 CD8^+ cells of an OT-I/CD45.1 mouse were transferred to a C57BL/6 mouse from the tail vein, with 3 μg of 6H8-OVA or PBS administered from the tail vein concurrently. (2) 96 hours later, the mouse spleen was recovered, and 2×10^6 splenocytes were stained with the following antibodies in a 96-well round-bottomed plate for 30 minutes (while cooling on ice).
PE-anti-mouse/human CD44 (eBioscience: Cat No. 12-0041), concentration: 1 μg/ml, amount used: 100 μl.
Biotin-anti-CD45.1 (eBioscience: 13-0453), concentration: 2.5 μg/ml, amount used: 100 μl.
(3) After being washed twice with PBS, the cells were stained with the following antibody for 30 minutes (while cooling on ice).
Streptavidin-APC (BioLegend: 405207), concentration: 0.2 μg/ml, amount used: 100 μl.
(4) After being washed twice with Annexin-binding buffer, the cells were stained with FITC-Annexin V using the Annexin V FITC reagent for 10 minutes (while cooling on ice).
(5) Fluorescence was determined using FACS Canto (BD).

Molecule	detection of HSP90 in Western blot (HSP90)	effect of concurrently administered free antibody on OT-I CD8+ T cell proliferation reaction by 6H8-OVA (OT-I CD8+ T cells [1]; free antibody 30 μg with 6H8-OVA 0.3 μg)	production of IL-1α, IL-1β, IL-2, IL-4, IL-9, IL-10, IL-12(p40), IL-12(p70), IL-13, G-CSF, GM-CSF, KC, MCP-1, MIP-1α, MIP-1β, RANTES [2]	pulmonary metastatic spots [3]	proliferation reaction of adoptively transferred OT-I CD8+ T cells (OT-I CD8+ T cells [1]; 0.3 μg alone)	cross-presentation potential of FcRγ KO mouse-derived dendritic cells compared with normal mouse-derived dendritic cells (OT-I CD8+ T cells [4])	expression level of CD44 on transferred OT-I CD8+ T cells (OT-I CD8+ T cells [5])
6H8: anti-HSP90 monoclonal antibody produced by hybridoma FERM BP-11222; epitope … (antibody) VH: QVQLQQSGPELVKPGASVRISCKASGYTFTSYYIHWVKQRPGQGLEWIGWIYPGNVNTKYNEKFKGKATLTADKSSSTAYMQLSSLTSEDSAVYFCARYGNYPFAYWGQGTLVTVSAAKTTAPSVYPLAPVCGDTTGSSVTLGCLVKGYF VL: DVVMTQTPLSLPVSLGDQASISCRSSQSLVHSNGNTYLHWYLQKPGQSPKLLIYKVSNRFSGVPDRFSGSGSGTDFTLKISRVEAEDLGVYFCSQSTHVPPTFGGGTKLEIKRADAAPTVSIFPPSSEQLTSGGASVVCFLNNFYPKDINVKWKIDGS	detected HSP90 as a single band	remarkably enhanced	induced				
6H8-OVA: high molecular weight conjugate of the 6H8 antibody and maleimide-activated OVA (conjugate) VH: QVQLQQSGPELVKPGASVRISCKASGYTFTSYYIHWVKQRPGQGLEWIGWIYPGNVNTKYNEKFKGKATLTADKSSSTAYMQLSSLTSEDSAVYFCARYGNYPFAYWGQGTLVTVSAAKTTAPSVYPLAPVCGDTTGSSVTLGCLVKGYF VL: DVVMTQTPLSLPVSLGDQASISCRSSQSLVHSNGNTYLHWYLQKPGQSPKLLIYKVSNRFSGVPDRFSGSGSGTDFTLKISRVEAEDLGVYFCSQSTHVPPTFGGGTKLEIKRADAAPTVSIFPPSSEQLTSGGASVVCFLNNFYPKDINVKWKIDGS GSIGAASMEFCFDVFKELKVHHANENIFYCPIAIMSALAMVYLGAKDSTRTQINKVVRFDKLPGFGDSIEAQCGTSVNVHSSLRDILNQITKPNDVYSFSLASRLYAEERYPILPEYLQCVKELYRGGLEPINFQTAADQARELINSWVESQTNGIIRNVLQPSSVDSQTAMVLVNAIVFKGLWEKAFKDEDTQAMPFRVTEQESKPVQMMYQIGLFRVASMASEKMKILELPFASGTMSMLVLLPDEVSGLEQLESIINFEKLTEWTSSNVMEERKIKVYLPRMKMEEKYNLTSVLMAMGITDVFSSSANLSGISSAESLKISQAVHAAHAEINEAGREVVGSAEAGVDAASVSEEFRADHPFLFCIKHIATNAVLFFGRCVSP				almost no metastatic spots	slight proliferation reaction	significantly decreased	increased
